The values below come from article PMC3565990.

This assay addresses SHP-1 (UniProt P29351). As to the kind of experiment: anti-FLAG IP, anti-SHP-1 Western blot. The following applies: reference: wild-type CD72fl, NP-BSA stimulated; sites Y7. For orientation: A western blot detects proteins with antibodies after separation by electrophoresis.

On to “human CD72fl (FLAG-tagged) (from UniProt P21854) CD72flYF (Y7F), NP-BSA stimulated”, for which the “binding against the reference” value was “lost”.
